# Results as given in patent US20240228660A1 (IP2IPO INNOVATIONS, published 2024).
# Where two headings read alike, the source gives them in different places.
# How the values were obtained:
# [1] = target: T1, human full-length VWF (human, UniProt P04275 764-2813); assay: SPR, Biacore T200, antibody captured on Protein A, full-length VWF as analyte, single-cycle kinetics
# Procedure: (§1) Antibodies were captured on Protein A sensor chip. The system was purged using running buffer (10 mM HEPES pH 7.4, 300 mM NaCl, 3 mM EDTA, 0.05% P20) and a series S Protein A chip was docked in the Biacore T200. The surface was conditioned with 10 mM glycine-HCl pH 1.5 regeneration solution (3 injections). Each antibody was diluted to ˜0.8 μg/ml in running buffer to capture ˜350 RU on flow cells 2, 3 and 4 (flow cell 1 used as in-line reference cell). Single-cycle kinetic analysis of human full-length VWF binding to antibodies was performed using the following parameters:
# [2] = target: T1, human full-length VWF; assay: SPR Biacore T200, antibody captured on Protein A chip, full-length VWF as analyte, single-cycle kinetics
# Procedure: as §1
# [3] = target: T1, human full-length VWF; assay: SPR, Biacore T200, antibody captured on Protein A, full-length VWF as analyte, single-cycle kinetics; remark: listed apart in the source
# Procedure: as §1
Binder,Kd [1],koff [1],kon [1],Kd [2],Kd [3],koff [3],kon [3]
"3-H9_H1_L0 (antibody, human IgG1, kappa, V domains shown, humanised, human IgG1 kappa) VH: not shown VL: DIQMTQSPSSLSASVGDRVTITCQSSQSVYSNNLLSWYQQKPGKAPKLLIYDASTLESGVPSRFSGSGSGTDFTLTISSLQPEDFATYYCQGSYYSSGWYNTFGGGTKVEIKT",,,,< 1000 pM,15.6 pM,2.84e-07 s⁻¹,18200 M⁻¹ s⁻¹
"4-H3_H2_L1 (antibody, human IgG1, kappa, humanised, human IgG1 kappa) heavy: not shown light: DYQMTQSPSSLSASVGDRVTITCLASEDIASGISWYQQKPGKAPKLLIYGASNLESGVPSRFSGSGSGTDYTLTISSLQPEDFATYYCLGGYSFSSNGLTFGGGTKVEIKTVAAPSVFIFPPSDEQLKSGTASVVCLLNNFYPREAKVQWKVDNALQSGNSQESVTEQDSKDSTYSLSSTLTLSKADYEKHKVYACEVTHQGLSSPVTKSFNRGEC",4.53 pM,1.36e-07 s⁻¹,29900 M⁻¹ s⁻¹,< 1000 pM,,,
"1-D5_H2_L1 (antibody, human IgG1, kappa, V domains shown, humanised, human IgG1 kappa) VH: QQQLVESGGGVVQPGRSLRLSCAASGFSLNNYIMGWVRQAPGKGLEYIGIISTGGSTYYASWAKGRFTISRDSNTMYLQMNSLRAEDTATYFCARGGSSAGAGFNIWGQGTLVTVSS VL: DIQMTQSPSSLSASVGDRVTITCQASQSINSGLAWYQQKPGKAPKRLIYKASTLASGVPSRFSGSGSGTDFTLTISSLQPEDFATYYCQSYHYISANGATFGGGTKVEIKT",38 pM,1.13e-05 s⁻¹,298000 M⁻¹ s⁻¹,< 1000 pM,,,
"1-D5_H1_L1 (antibody, human IgG1, kappa, V domains shown, humanised, human IgG1 kappa) VH: QVQLVESGGGVVQPGRSLRLSCAASGFSLNNYIMGWVRQAPGKGLEWVAIISTGGSTYYASWAKGRFTISRDNSKNTLYLQMNSLRAEDTAVYYCARGGSSAGAGFNIWGQGTLVTVSS VL: DIQMTQSPSSLSASVGDRVTITCQASQSINSGLAWYQQKPGKAPKRLIYKASTLASGVPSRFSGSGSGTDFTLTISSLQPEDFATYYCQSYHYISANGATFGGGTKVEIKT",0.0946 pM,6.72e-09 s⁻¹,71000 M⁻¹ s⁻¹,< 1000 pM,,,
"1-D5_H0_L1 (antibody, human IgG1, kappa, V domains shown, humanised, human IgG1 kappa) VH: QVQLVESGGGVVQPGRSLRLSCAASGFTFSNYIMGWVRQAPGKGLEWVAIISTGGSTYYASWAKGRFTISRDNSKNTLYLQMNSLRAEDTAVYYCARGGSSAGAGFNIWGQGTLVTVSS VL: DIQMTQSPSSLSASVGDRVTITCQASQSINSGLAWYQQKPGKAPKRLIYKASTLASGVPSRFSGSGSGTDFTLTISSLQPEDFATYYCQSYHYISANGATFGGGTKVEIKT",1.77 pM,2.99e-07 s⁻¹,169000 M⁻¹ s⁻¹,< 1000 pM,,,
"1-D5_H2_L0 (antibody, human IgG1, kappa, V domains shown, humanised, human IgG1 kappa) VH: QQQLVESGGGVVQPGRSLRLSCAASGFSLNNYIMGWVRQAPGKGLEYIGIISTGGSTYYASWAKGRFTISRDSNTMYLQMNSLRAEDTATYFCARGGSSAGAGFNIWGQGTLVTVSS VL: DIQMTQSPSSLSASVGDRVTITCQASQSINSGLAWYQQKPGKAPKLLIYKASTLASGVPSRFSGSGSGTDFTLTISSLQPEDFATYYCQSYHYISANGATFGGGTKVEIKT",7.66 pM,1.06e-06 s⁻¹,138000 M⁻¹ s⁻¹,< 1000 pM,,,
"1-D5_H0_L0 (antibody, human IgG1, kappa, V domains shown, humanised, human IgG1 kappa) VH: QVQLVESGGGVVQPGRSLRLSCAASGFTFSNYIMGWVRQAPGKGLEWVAIISTGGSTYYASWAKGRFTISRDNSKNTLYLQMNSLRAEDTAVYYCARGGSSAGAGFNIWGQGTLVTVSS VL: DIQMTQSPSSLSASVGDRVTITCQASQSINSGLAWYQQKPGKAPKLLIYKASTLASGVPSRFSGSGSGTDFTLTISSLQPEDFATYYCQSYHYISANGATFGGGTKVEIKT",0.15 pM,1.13e-08 s⁻¹,75200 M⁻¹ s⁻¹,< 1000 pM,,,
"1-D5_H1_L0 (antibody, human IgG1, kappa, V domains shown, humanised, human IgG1 kappa) VH: QVQLVESGGGVVQPGRSLRLSCAASGFSLNNYIMGWVRQAPGKGLEWVAIISTGGSTYYASWAKGRFTISRDNSKNTLYLQMNSLRAEDTAVYYCARGGSSAGAGFNIWGQGTLVTVSS VL: DIQMTQSPSSLSASVGDRVTITCQASQSINSGLAWYQQKPGKAPKLLIYKASTLASGVPSRFSGSGSGTDFTLTISSLQPEDFATYYCQSYHYISANGATFGGGTKVEIKT",1.6 pM,1.25e-07 s⁻¹,77900 M⁻¹ s⁻¹,< 1000 pM,,,
"1-G5_H2_L1 (antibody, human IgG1, kappa, humanised, human IgG1 kappa) heavy: not shown light: DPQMTQSPSSLSASVGDRVTITCQASQSVYNNNYLSWYQQKPGKAPKLLIYDASTLASGVPSRFSGSGSGTDFTLTISSLQPEDFATYYCQGSYYSGGWDTAFGGGTKVEIKTVAAPSVFIFPPSDEQLKSGTASVVCLLNNFYPREAKVQWKVDNALQSGNSQESVTEQDSKDSTYSLSSTLTLSKADYEKHKVYACEVTHQGLSSPVTKSFNRGEC",,,,< 1000 pM,0.174 pM,2.25e-08 s⁻¹,129000 M⁻¹ s⁻¹
"1-G5_H1_L1 (antibody, human IgG1, kappa, humanised, human IgG1 kappa) heavy: not shown light: DPQMTQSPSSLSASVGDRVTITCQASQSVYNNNYLSWYQQKPGKAPKLLIYDASTLASGVPSRFSGSGSGTDFTLTISSLQPEDFATYYCQGSYYSGGWDTAFGGGTKVEIKTVAAPSVFIFPPSDEQLKSGTASVVCLLNNFYPREAKVQWKVDNALQSGNSQESVTEQDSKDSTYSLSSTLTLSKADYEKHKVYACEVTHQGLSSPVTKSFNRGEC",,,,< 1000 pM,14.8 pM,6.03e-07 s⁻¹,40700 M⁻¹ s⁻¹
"1-G5_H0_L0 (antibody, human IgG1, kappa, humanised, human IgG1 kappa) heavy: not shown light: DIQMTQSPSSLSASVGDRVTITCQASQSVYNNNYLSWYQQKPGKAPKLLIYDASTLASGVPSRFSGSGSGTDFTLTISSLQPEDFATYYCQGSYYSGGWDTAFGGGTKVEIKTVAAPSVFIFPPSDEQLKSGTASVVCLLNNFYPREAKVQWKVDNALQSGNSQESVTEQDSKDSTYSLSSTLTLSKADYEKHKVYACEVTHQGLSSPVTKSFNRGEC",,,,< 1000 pM,1.1 pM,9.05e-08 s⁻¹,82400 M⁻¹ s⁻¹
"1-G5_H2_L0 (antibody, human IgG1, kappa, humanised, human IgG1 kappa) heavy: not shown light: DIQMTQSPSSLSASVGDRVTITCQASQSVYNNNYLSWYQQKPGKAPKLLIYDASTLASGVPSRFSGSGSGTDFTLTISSLQPEDFATYYCQGSYYSGGWDTAFGGGTKVEIKTVAAPSVFIFPPSDEQLKSGTASVVCLLNNFYPREAKVQWKVDNALQSGNSQESVTEQDSKDSTYSLSSTLTLSKADYEKHKVYACEVTHQGLSSPVTKSFNRGEC",,,,< 1000 pM,13 pM,3.9e-07 s⁻¹,29900 M⁻¹ s⁻¹
"1-G5_H0_L1 (antibody, human IgG1, kappa, humanised, human IgG1 kappa) heavy: not shown light: DPQMTQSPSSLSASVGDRVTITCQASQSVYNNNYLSWYQQKPGKAPKLLIYDASTLASGVPSRFSGSGSGTDFTLTISSLQPEDFATYYCQGSYYSGGWDTAFGGGTKVEIKTVAAPSVFIFPPSDEQLKSGTASVVCLLNNFYPREAKVQWKVDNALQSGNSQESVTEQDSKDSTYSLSSTLTLSKADYEKHKVYACEVTHQGLSSPVTKSFNRGEC",,,,< 1000 pM,12.9 pM,1.02e-06 s⁻¹,79000 M⁻¹ s⁻¹

# The next lines start with the values.
Kd [1],koff [1],kon [1],Kd [2],Kd [3],koff [3],kon [3],Binder
1.49 pM,1.72e-07 s⁻¹,115000 M⁻¹ s⁻¹,< 1000 pM,,,,"4-H3_H3_L1 (antibody, human IgG1, kappa, V domains shown, humanised, human IgG1 kappa) VH: QVQLVESGGGVVQPGRSLRLSCAASGIDLTSNAMNWVRQAPGKGLEWIGGIYGHDTSYYAAWAKGRFTISRDNSKNTVYLQMNSLRAEDTAVYYCARGFIYFDIWGQGTLVTVSS VL: DYQMTQSPSSLSASVGDRVTITCLASEDIASGISWYQQKPGKAPKLLIYGASNLESGVPSRFSGSGSGTDYTLTISSLQPEDFATYYCLGGYSFSSNGLTFGGGTKVEIKT"
19.3 pM,5.24e-07 s⁻¹,27100 M⁻¹ s⁻¹,< 1000 pM,,,,"4-H3_H4_L0 (antibody, human IgG1, kappa, V domains shown, humanised, human IgG1 kappa) VH: QVQLVESGGGVVQPGRSLRLSCAASGIDLTSNAMNWVRQAPGKGLEWVAGIYGHDTSYYAAWAKGRFTISRDNSKNTLYLQMNSLRAEDTATYFCARGFIYFDIWGQGTLVTVSS VL: DIQMTQSPSSLSASVGDRVTITCLASEDIASGISWYQQKPGKAPKLLIYGASNLESGVPSRFSGSGSGTDFTLTISSLQPEDFATYYCLGGYSFSSNGLTFGGGTKVEIKT"
0.14 pM,6.25e-09 s⁻¹,44500 M⁻¹ s⁻¹,< 1000 pM,,,,"4-H3_H4_L1 (antibody, human IgG1, kappa, V domains shown, humanised, human IgG1 kappa) VH: QVQLVESGGGVVQPGRSLRLSCAASGIDLTSNAMNWVRQAPGKGLEWVAGIYGHDTSYYAAWAKGRFTISRDNSKNTLYLQMNSLRAEDTATYFCARGFIYFDIWGQGTLVTVSS VL: DYQMTQSPSSLSASVGDRVTITCLASEDIASGISWYQQKPGKAPKLLIYGASNLESGVPSRFSGSGSGTDYTLTISSLQPEDFATYYCLGGYSFSSNGLTFGGGTKVEIKT"
,,,< 1000 pM,11.2 pM,8.74e-07 s⁻¹,78100 M⁻¹ s⁻¹,"3-H9_H2_L0 (antibody, human IgG1, kappa, V domains shown, humanised, human IgG1 kappa) VH: QQLVESGGGVVQPGRSLRLSCAASGFSLSNYDMSWVRQAPGKGLEWIGSIHAIGITYYANWAEGRFTISRDKNTVYLQMNSLRAEDTATYFCARGLVDLNMWGQGTLVTVSS VL: DIQMTQSPSSLSASVGDRVTITCQSSQSVYSNNLLSWYQQKPGKAPKLLIYDASTLESGVPSRFSGSGSGTDFTLTISSLQPEDFATYYCQGSYYSSGWYNTFGGGTKVEIKT"
,,,< 1000 pM,1.05 pM,8.46e-08 s⁻¹,80900 M⁻¹ s⁻¹,"3-H9_H0_L0 (antibody, human IgG1, kappa, V domains shown, humanised, human IgG1 kappa) VH: QVQLVESGGGVVQPGRSLRLSCAASGFTFSNYDMSWVRQAPGKGLEWVASIHAIGITYYANWAEGRFTISRDNSKNTLYLQMNSLRAEDTAVYYCARGLVDLNMWGQGTLVTVSS VL: DIQMTQSPSSLSASVGDRVTITCQSSQSVYSNNLLSWYQQKPGKAPKLLIYDASTLESGVPSRFSGSGSGTDFTLTISSLQPEDFATYYCQGSYYSSGWYNTFGGGTKVEIKT"
27.3 pM,9.13e-07 s⁻¹,33500 M⁻¹ s⁻¹,< 1000 pM,,,,"4-H3_H2_L0 (antibody, human IgG1, kappa, humanised, human IgG1 kappa) heavy: not shown light: DIQMTQSPSSLSASVGDRVTITCLASEDIASGISWYQQKPGKAPKLLIYGASNLESGVPSRFSGSGSGTDFTLTISSLQPEDFATYYCLGGYSFSSNGLTFGGGTKVEIKTVAAPSVFIFPPSDEQLKSGTASVVCLLNNFYPREAKVQWKVDNALQSGNSQESVTEQDSKDSTYSLSSTLTLSKADYEKHKVYACEVTHQGLSSPVTKSFNRGEC"
